# In the supplement of paper PMC10724198:
# ± gives the standard deviation of the averaged measurements.
# What was measured:
# Saccharomyces cerevisiae [1] = assay: protein stability index of tFT-peptide fusion (C-terminal peptide) (PSI (0-1 scale)); higher = more stable (slower turnover)
# Procedure: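 MPS profiling in S. cerevisiae of the tFT-X12 degron library: putative degron peptides plus stable controls, 12 aa, fused to the C-terminus of a sfGFP-mCherry timer. Cells are FACS-sorted into 8 mCherry/sfGFP bins and deep-sequenced. PSI runs from 0 (unstable) to 1 (stable). Backgrounds are wild type, das1Δ and doa10Δ at 30 °C, and wild type, das1Δ, cdc34-1 and cdc53-1 at 37 °C; 2-3 technical replicates each.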
# Saccharomyces cerevisiae [2] = assay: as above; details: genetic background: wild type; temperature: 30 C
# [3] = genetic background: cdc34-1, temperature: 37 C
# [4] = genetic background: cdc53-1, temperature: 37 C
# [5] = genetic background: das1 deletion, temperature: 30 C
# [6] = genetic background: das1 deletion, temperature: 37 C
# [7] = genetic background: doa10 deletion, temperature: 30 C
# [8] = genetic background: wild type, temperature: 30 C
# [9] = genetic background: wild type, temperature: 37 C
# 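Further: PSI is a weighted mean of sequencing reads over stability bins, variants kept only with over 10 reads, mCherry proximal and sfGFP distal, peptide attached via GGGS linker.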
Sequence,protein stability index (Saccharomyces cerevisiae [1]; [3]),protein stability index (Saccharomyces cerevisiae [1]; [4]),protein stability index (Saccharomyces cerevisiae [1]; [5]),protein stability index (Saccharomyces cerevisiae [1]; [6]),protein stability index (Saccharomyces cerevisiae [1]; [7]),protein stability index (Saccharomyces cerevisiae [1]; [8]),protein stability index (Saccharomyces cerevisiae [1]; [9]),protein stability index (Saccharomyces cerevisiae [2])
RFHFAAPPHRPS,0.703 ± 0.024,0.744 ± 0.0012,0.679 ± 0.027,0.748 ± 0.0096,0.694 ± 0.062,0.668 ± 0.034,0.7583 ± 0.0022,0.879 ± 0.01
RFIYYCVDVFFS,0.0337 ± 0.01,0.147 ± 0.025,0.123 ± 0.049,0.215 ± 0.021,0.0847 ± 0.031,0.1 ± 0.034,0.19 ± 0.037,0.176 ± 0.033
RFLACSIRYLVY,0.294 ± 0.012,0.425 ± 0.037,0.286 ± 0.025,0.41 ± 0.008,0.227 ± 0.0073,0.277 ± 0.018,0.4 ± 0.027,0.332 ± 0.025
RFRFRRTCLYAT,0.5745 ± 0.0034,0.588 ± 0.077,0.501 ± 0.028,0.655 ± 0.013,0.0931 ± 0.039,0.14 ± 0.0057,0.217 ± 0.033,0.197 ± 0.0089
RGAVRVAWYPVL,0.699 ± 0.00098,0.737 ± 0.01,0.64 ± 0.011,0.7511 ± 0.0011,0.492 ± 0.019,0.517 ± 0.0095,0.684 ± 0.011,0.508 ± 0.095
RGDCFLVLCVWR,0.499 ± 0.022,0.535 ± 0.015,0.366 ± 0.032,0.563 ± 0.017,0.348 ± 0.0047,0.362 ± 0.026,0.541 ± 0.0062,0.485 ± 0.0086
RGGPPPCPLLAA,0.68 ± 0.036,0.698 ± 0.032,0.585 ± 0.012,0.688 ± 0.0092,0.571 ± 0.035,0.584 ± 0.011,0.664 ± 0.013,0.51 ± 0.034
RGGWVVVLGCVG,0.634 ± 0.034,0.6292 ± 0.0044,0.482 ± 0.029,0.6417 ± 0.0043,0.468 ± 0.021,0.486 ± 0.018,0.635 ± 0.036,0.501 ± 0.016
RGLWAAIPRKCT,0.669 ± 0.04,0.74108 ± 0.00026,0.645 ± 0.0061,0.754 ± 0.016,0.179 ± 0.027,0.223 ± 0.023,0.548 ± 0.02,0.358 ± 0.028
RGPSQVIVAFFV,0.663 ± 0.027,0.6843 ± 0.0038,0.522 ± 0.026,0.688 ± 0.0083,0.3186 ± 0.0031,0.371 ± 0.026,0.5674 ± 0.0018,0.49 ± 0.016
RGSLLRWFLAAQ,0.628 ± 0.031,0.707 ± 0.012,0.654 ± 0.034,0.706 ± 0.022,0.289 ± 0.0095,0.31 ± 0.029,0.541 ± 0.019,0.443 ± 0.014
RGSRLVPRLLRP,0.686 ± 0.028,0.705 ± 0.012,0.648 ± 0.015,0.713 ± 0.0012,0.64 ± 0.02,0.656 ± 0.03,0.677 ± 0.0057,0.71 ± 0.024
RGWWWFVVVLCR,0.165 ± 0.0082,0.139 ± 0.0061,0.216 ± 0.033,0.316 ± 0.0084,0.2215 ± 0.00025,0.197 ± 0.012,0.2951 ± 0.0014,0.329 ± 0.028
RHIRGLNLIKLI,0.316 ± 0.092,0.672 ± 0.034,0.652 ± 0.025,0.69 ± 0.034,0.0672 ± 0.022,0.0745 ± 0.011,0.0777 ± 0.0067,0.161 ± 0.044
RHQTDIVTATQK,0.694 ± 0.05,0.724 ± 0.026,0.636 ± 0.036,0.717 ± 0.012,0.642 ± 0.062,0.685 ± 0.014,0.70375 ± 0.00022,0.562 ± 0.097
RHVFLRIKVLNL,0.564 ± 0.11,0.644 ± 0.051,0.52 ± 0.016,0.5596 ± 0.0049,0.344 ± 0.0053,0.397 ± 0.015,0.5197 ± 0.0025,0.489 ± 0.085
RIFRCYSFYVVV,0.496 ± 0.047,0.587 ± 0.029,0.393 ± 0.026,0.568 ± 0.024,0.272 ± 0.029,0.267 ± 0.031,0.4233 ± 0.0012,0.336 ± 0.021
RILFSPSTFYLF,0.665 ± 0.048,0.761 ± 0.037,0.705 ± 0.03,0.7501 ± 0.0036,0.214 ± 0.024,0.265 ± 0.031,0.487 ± 0.024,0.397 ± 0.026
RIRRVMHLYTNN,0.475 ± 0.027,0.705 ± 0.071,0.641 ± 0.027,0.708 ± 0.024,0.0717 ± 0.0049,0.0844 ± 0.012,0.109 ± 0.044,0.121 ± 0.0048
RISYKTKINELI,0.653 ± 0.038,0.735 ± 0.034,0.607 ± 0.034,0.737 ± 0.01,0.262 ± 0.0063,0.287 ± 0.052,0.5426 ± 0.003,0.434 ± 0.043
RIVLRPPFNSVA,0.619 ± 0.015,0.727 ± 0.017,0.656 ± 0.035,0.7428 ± 0.0017,0.176 ± 0.0064,0.217 ± 0.018,0.48 ± 0.0059,0.367 ± 0.077
RKKKRNKKKMIM,0.716 ± 0.058,0.734 ± 0.019,0.629 ± 0.019,0.706 ± 0.022,0.362 ± 0.024,0.342 ± 0.09,0.621 ± 0.0081,0.522 ± 0.044
RLDAPGLSRTEN,0.66 ± 0.04,0.68 ± 0.011,0.647 ± 0.044,0.683 ± 0.0075,0.66 ± 0.026,0.646 ± 0.078,0.671 ± 0.017,0.513 ± 0.12
RLFYRLSFVYFL,0.398 ± 0.025,0.4469 ± 0.0038,0.378 ± 0.029,0.514 ± 0.017,0.169 ± 0.0068,0.175 ± 0.016,0.243 ± 0.015,0.2655 ± 0.0014
RLLLLLTCIIYI,0.173 ± 0.006,0.219 ± 0.023,0.194 ± 0.016,0.276 ± 0.052,0.183 ± 0.026,0.16 ± 0.046,0.267 ± 0.032,0.256 ± 0.015
RLPVMFWFVCSF,0.561 ± 0.053,0.641 ± 0.024,0.477 ± 0.026,0.6288 ± 0.0029,0.47 ± 0.038,0.466 ± 0.026,0.638 ± 0.055,0.506 ± 0.042
RLVRILSTILLN,0.487 ± 0.079,0.638 ± 0.038,0.576 ± 0.028,0.703 ± 0.052,0.0769 ± 0.029,0.1 ± 0.014,0.0569 ± 0.034,0.177 ± 0.049
RLVVSRNFYRLC,0.622 ± 0.054,0.723 ± 0.017,0.6318 ± 0.006,0.7235 ± 0.0012,0.125 ± 0.0022,0.135 ± 0.014,0.342 ± 0.0091,0.304 ± 0.1
RLWLPLSLVLWV,0.376 ± 0.05,0.3824 ± 0.0031,0.37 ± 0.072,0.505 ± 0.012,0.414 ± 0.03,0.341 ± 0.05,0.421 ± 0.041,0.427 ± 0.029
RMCEILGIRHLI,0.611 ± 0.031,0.742 ± 0.016,0.645 ± 0.025,0.748 ± 0.017,0.137 ± 0.013,0.158 ± 0.01,0.303 ± 0.016,0.245 ± 0.061
